The target of assay [1] is T1, human IL-18 binding protein (human, UniProt O95998 31-194).
T1 sequence (looked up): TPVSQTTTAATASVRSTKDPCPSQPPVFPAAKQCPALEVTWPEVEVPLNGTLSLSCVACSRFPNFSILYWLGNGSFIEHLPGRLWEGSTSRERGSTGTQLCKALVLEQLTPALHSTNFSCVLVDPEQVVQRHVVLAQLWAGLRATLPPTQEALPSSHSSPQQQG
In words: cell-based or functional assay.

Assay [2] deals with T2, IL-18 receptors on HEK-Blue IL-18 reporter cells (UniProt Q13478 19-541; O95256 20-599, limits assumed).
T2 sequence (looked up) 1: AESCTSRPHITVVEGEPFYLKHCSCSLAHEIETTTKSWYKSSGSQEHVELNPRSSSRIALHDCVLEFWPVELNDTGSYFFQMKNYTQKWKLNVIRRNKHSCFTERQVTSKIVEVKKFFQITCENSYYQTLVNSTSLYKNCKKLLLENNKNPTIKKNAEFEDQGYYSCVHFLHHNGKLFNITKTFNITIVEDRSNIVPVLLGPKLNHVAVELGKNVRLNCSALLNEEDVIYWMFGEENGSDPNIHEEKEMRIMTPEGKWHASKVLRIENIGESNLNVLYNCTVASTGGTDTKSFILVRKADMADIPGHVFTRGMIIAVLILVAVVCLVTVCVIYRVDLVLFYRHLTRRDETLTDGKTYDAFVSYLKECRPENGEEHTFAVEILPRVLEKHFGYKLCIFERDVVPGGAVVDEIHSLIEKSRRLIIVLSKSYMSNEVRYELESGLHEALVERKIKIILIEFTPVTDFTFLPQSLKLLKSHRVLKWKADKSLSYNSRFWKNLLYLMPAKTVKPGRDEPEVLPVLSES
T2 sequence (looked up) 2: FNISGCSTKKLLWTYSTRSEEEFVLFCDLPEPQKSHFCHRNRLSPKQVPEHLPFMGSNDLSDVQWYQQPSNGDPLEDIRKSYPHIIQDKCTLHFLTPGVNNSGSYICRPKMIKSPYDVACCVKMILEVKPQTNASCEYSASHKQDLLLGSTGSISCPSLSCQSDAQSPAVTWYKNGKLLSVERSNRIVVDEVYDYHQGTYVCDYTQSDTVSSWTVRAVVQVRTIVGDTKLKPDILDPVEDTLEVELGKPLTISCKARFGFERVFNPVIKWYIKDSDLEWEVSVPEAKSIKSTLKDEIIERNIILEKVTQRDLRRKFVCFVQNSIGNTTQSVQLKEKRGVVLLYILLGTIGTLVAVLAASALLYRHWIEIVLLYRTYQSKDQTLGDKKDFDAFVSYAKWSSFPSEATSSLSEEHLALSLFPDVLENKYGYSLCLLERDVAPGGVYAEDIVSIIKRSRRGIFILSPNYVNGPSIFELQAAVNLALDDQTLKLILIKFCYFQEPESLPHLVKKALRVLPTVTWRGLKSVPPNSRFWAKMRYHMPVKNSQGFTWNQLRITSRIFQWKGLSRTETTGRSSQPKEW
In words: cell-based or functional assay.

The values below come from US20240182536A1 (MURAL ONCOLOGY, published 2024).

B1: yeast display IL-18 variant K53S, S55K (ligand)
chain: YFGKLESKLSVIRNLNDQVLFIDQGNRPLFEDMTDSDMRDNAPRTIFIISMYSDKQPRGMAVTISVKSEKISTLSSENKIISFKEMNPPDNIKDTKSDIIFFQRSVPGHDNKMQFESSSYEGYFLASEKERDLFKLILKKEDELGDRSIMFTVQNED
For B1, in assay [1], the “HEK-Blue activity, +100 nM BP, DF-10000” value stood at 2.03; the “HEK-Blue activity, +100 nM BP, DF-100,000” value turned out to be 1.41; the “HEK-Blue activity, +100 nM BP, DF-1,000,000” value amounted to 0.53; the “Ratio (-BP/+BP), DF-10000” value amounted to 0.98. In assay [1], the “Ratio (-BP/+BP), DF-100,000” value was determined as 0.96 and the “Ratio (-BP/+BP), DF-1,000,000” value came to 0.95. In addition, in assay [2], the “HEK-Blue activity, No BP, DF-10000” value amounted to 2; the “HEK-Blue activity, No BP, DF-100,000” value was found to be 1.35; the “HEK-Blue activity, No BP, DF-1,000,000” value stood at 0.5.

B2: yeast display IL-18 variant L5W, I22M, K53N, S55Y, Q56H (ligand)
chain: YFGKWESKLSVIRNLNDQVLFMDQGNRPLFEDMTDSDMRDNAPRTIFIISMYNDYHPRGMAVTISVKSEKISTLSSENKIISFKEMNPPDNIKDTKSDIIFFQRSVPGHDNKMQFESSSYEGYFLASEKERDLFKLILKKEDELGDRSIMFTVQNED
As to B2, in assay [1], the “HEK-Blue activity, +100 nM BP, DF-10000” value worked out at 0.72; the “HEK-Blue activity, +100 nM BP, DF-100,000” value was found to be 0.23; the “HEK-Blue activity, +100 nM BP, DF-1,000,000” value came to 0.21; the “Ratio (-BP/+BP), DF-10000” value is 1.05. In assay [1], the “Ratio (-BP/+BP), DF-100,000” value was determined as 0.91 and the “Ratio (-BP/+BP), DF-1,000,000” value was 0.61. Also, in assay [2], the “HEK-Blue activity, No BP, DF-10000” value was found to be 0.75; the “HEK-Blue activity, No BP, DF-100,000” value was 0.21; the “HEK-Blue activity, No BP, DF-1,000,000” value is 0.13.

B3: yeast display IL-18 variant K53T, S55A (ligand)
chain: YFGKLESKLSVIRNLNDQVLFIDQGNRPLFEDMTDSDMRDNAPRTIFIISMYTDAQPRGMAVTISVKSEKISTLSSENKIISFKEMNPPDNIKDTKSDIIFFQRSVPGHDNKMQFESSSYEGYFLASEKERDLFKLILKKEDELGDRSIMFTVQNED
In the case of B3, in assay [1], the “HEK-Blue activity, +100 nM BP, DF-10000” value was 1.85; the “HEK-Blue activity, +100 nM BP, DF-100,000” value was 0.95; the “HEK-Blue activity, +100 nM BP, DF-1,000,000” value came to 0.32; the “Ratio (-BP/+BP), DF-10000” value amounted to 0.97. In assay [1], the “Ratio (-BP/+BP), DF-100,000” value is 1 and the “Ratio (-BP/+BP), DF-1,000,000” value amounted to 0.89. In assay [2], the “HEK-Blue activity, No BP, DF-10000” value stood at 1.8; the “HEK-Blue activity, No BP, DF-100,000” value was found to be 0.96; the “HEK-Blue activity, No BP, DF-1,000,000” value was found to be 0.29.

B4: yeast display IL-18 variant K53S, S55G (ligand)
chain: YFGKLESKLSVIRNLNDQVLFIDQGNRPLFEDMTDSDMRDNAPRTIFIISMYSDGQPRGMAVTISVKSEKISTLSSENKIISFKEMNPPDNIKDTKSDIIFFQRSVPGHDNKMQFESSSYEGYFLASEKERDLFKLILKKEDELGDRSIMFTVQNED
With B4, in assay [1], the “HEK-Blue activity, +100 nM BP, DF-10000” value came out at 1.83; the “HEK-Blue activity, +100 nM BP, DF-100,000” value worked out at 0.97; the “HEK-Blue activity, +100 nM BP, DF-1,000,000” value was 0.27; the “Ratio (-BP/+BP), DF-10000” value was determined as 0.93. Further, in assay [1], the “Ratio (-BP/+BP), DF-100,000” value amounted to 0.95 and the “Ratio (-BP/+BP), DF-1,000,000” value was found to be 1.1. In assay [2], the “HEK-Blue activity, No BP, DF-10000” value turned out to be 1.71; the “HEK-Blue activity, No BP, DF-100,000” value worked out at 0.91; the “HEK-Blue activity, No BP, DF-1,000,000” value came to 0.3.
